experiment: soluble on expression in E. coli; label from the status in PepcDB or PDB records

| Sequence | soluble on expression in E. coli |
| --- | --- |
| MLTDTAAEGLSDSEVGREEPATAEEEQREQQPEKFEEPVFSAELDEEQTAPESQTEAVSEDEKAKEPSDSPVYNHHENAAEGAESPFVQEEQMDIRQEEPLFTDHEYSSEALAQAETVAKESEEPSESIINNHYDTLGEAQETKIDVQPDSHTELEKTEHMEQGSKSSTATLENRQEIRADKPREASEEPKKRPGVQEKRTEQSASSQKGPSVPFNVMMLKRDTHKQQKAEERRGSYVFPNVALLDVPPAQVQDDTAWIEEQRQLLDLTLKNFNVRANVVHVTQGPSVTRFEVHPEPGVKVNKITNLSDDIKLSLSAKDIRIEAPIPGKNTIGIEVPNRTSKVVDLRQMIRSSAFRTSKSPLTAALGLDISGNPVVIDLKKMPHGLIAGATGSGKSVCINTILVSLLYKADPSEVKVLLIDPKMVELAPYNKIPHLVSPVITDAKAATAALKWVVEEMERRYELFAHSGVRDIDRFNQLTAEHQMGEKLPYLVVIIDELADLMMVAPNDVEESIARIAQKARACGIHLLVATQRPSVDVITGLIKANIPTRIAFSVSSQVDSRTIIDIAGAEKLLGKGDMLFLENGSGKPVRLQGNFVSDREIDRVVSHVRSQMPPTYLFEQEELVRQGSALKEEDELFYEACEFVVEQNSASTSSLQRRFRIGYNRAARLIDMMEAEGMISEAKGSKPREVLITASDLINE | not soluble |
| MGHHHHHHSHMEKSEPVDQRRHTAGKAIVDSRSAQPKETSEERKARLSEWKAGKGRVLKRPPNSVVTQHEPAGQNEKPVGSFWTTMAEEDEQRLFTEKVNNTFSECLNLINEGCPKEDILVTLNDLIKNIPDAKKLVKYWICLALIEPITSPIENIIAIYEKAILAGAQPIEEMRHTIVDILTMKSQEKANLGENMEKSCASKEEVQEVSIEDTGVDVDPEKLEMESKLHRNLLFQDCEKEQDNKTKDPTHDVKTPNTETRTSCLIKYNVSTTPYLQSVKKKVQFDGTNSAFKELKFLTPVRRSRRLQEKTSKLPDMLRDHYPCVSSLEQLTELGRETDAFVCRPNAALCRVYYEADTT | not soluble |
| SPNALDISRTYPTLHVLIQFNHRGLEVRLFRHGQFWAETRADVILRSKTKQVSFLSNGNYPSMDSRAPWNPWKNTYQAVLRAEPCRVTMDIYYKRVRPFRLPLVQKEWPVREENVFGLYRIFNAHYAGYFADLLIHDIETNPAPFMFRPRKQVFQTQGAAVSSMAQTLLPNDLASKAMGSAFTALLDANEDAQKAMKIIKTLSSLSDAWENVKETLNNPEFWKQLLSRCVQLIAGMTIAVMHPDPLTLLCLGTLTAAEITSQTSLCEEIAAKFKTIFITPPPRFPTISLFQQQ | not soluble |
| MRGSHHHHHHGMSCSKSVIKEEMLIDLHLEGTFNGHYFEIKGKGKGQPNEGTNTVTLEVTKGGPLPFGWHILCPQFQYGNKAFVHHPDNIHDYLKLSFPEGYTWERSMHFEDGGLCCITNDISLTGNCFYYDIKFTGLNFPPNGPVVQKKTTGWEPSTERLYPRDGVLIGDIHHALTVEGGGHYACDIKTVYRAKKAALKMPGYHYVDTKLVIWNNDKEFMKVEEHEIAVARHHPFYEPKKDK | soluble |
| MSMTDLLNAEDIKKAVGAFSATDSFDHKKFFQMVGLKKKSADDVKKVFHMLDKDKSGFIEEDELGFILKGFSPDARDLSAKETKMLMAAGDKDGDGKIGVDEFSTLVAES | soluble |
| MHTNMWVVDNVVERKKYYPQLQEAAKLLRENEAIAFPTETVYGLGANAMNDEAIAKIFEAKGRPSDNPLIVHIGTKSQLDGIVKEIPPVAEKLMEHFWPGPLTIILPRKEGISEKVTAGLHTVGVRMPDHPVALALIEEANVPVAAPSANRSGRPSPTLASHVYEDLNEKIAGIVDGGATGVGVESTVIDCTSAVPTILRPGGITKEQLEAVIGTVSLDPALKDEKEKPKSPGMKYTHYAPKAPLSIVEGSREFIQRLVDEKKEEGFKVGVLTTEEYHHIYNADVVLSCGVRSDLASVATKLYDVLRTFDASEVDVIFSESFPNEGIGNAIMNRLTKAAGHHIITE | not soluble |
| MGSDKIHHHHHHMGIVGLPNAGKSSFFNFLTDNSVPAESFPFCTIEPNVGILVVPDERIEILAKNEGSKKVVHPFVEVVDIAGLVKGASKGEGLGNQFLDHISKVDVIAHVVRLFEDGRVSHPYQNVDPKRDIEIVETELILKDLETVQKRLEKRMKVARTGDKEAKREVELLQNLREFLSQGKKASKFPRHDRFEEEVIESLFLLTDKPQILVFNVDELDEEKRKLIEEIVKEKDEEYIIINVKLEEELKFLPEEEAEVFRREYNLFGDKRKEFFEKVLKLLNLIRFLTATQNEARSWTIKKGSTAYEAAGLIHSDIQKGFIKVEVIPFERYVEFGSLKKAREAGAVETHGKDYIVREGDVIHFLFRA | not soluble |
| GPGSMFSCCLRSLARGREPQVLGTAVPSFYNFPYRAQDVLHLYRDLLKLIYQHPPQERADLLFRLRNEFHSRRHLSAPKLISAAIRRGEGILNVQRGLMESRSVRARAVASRERGAQSVDGLWDQLQIVSGHMLPGLRNFSASRGLSRGSYVRQATTQAVYSRRK | not soluble |
| MAELRVLVAVKRVIDYAVKIRVKPDRTGVVTDGVKHSMNPFCEIAVEEAVRLKEKKLVKEVIAVSCGPAQCQETIRTALAMGADRGIHVEVPPAEAERLGPLQVARVLAKLAEKEKVDLVLLGKQAIDDDCNQTGQMTAGFLDWPQGTFASQVTLEGDKLKVERAIDGGLETLRLKLPAVVTADLRLNEPRYATLPNIMKAKKKKIEVIKPGDLGVDLTSKLSVISVEDPPQRTAGVKVETTEDLVAKLKEIGRI | soluble |
| RVQLLESGAELMKPGASVQISCKATGYTFSEYWIEWVKERPGHGLEWIGEILPGSGRTNYREKFKGKATFTADTSSNTAYMQLSSLTSEDSAVYYCTRGYSSMDYWGQGTSVTVSAAKTTPPSVYPLAPGCGDTTGSSVTLGCLVKGYFPESVTVTWNSGSLSSSVHTFPALLQSGLYTMSSSVTVPSSTWPSQTVTCSVAHPASSTTVDKKLEPSGPI | soluble |
| REHDFDDLKFEHFLASAAGAFPAFLEVAEKRIIGEGVLRAVKESMRWHRAENVHFGAFLLLVPLISSWDAGGMVDIAEAARNRLRRTDFRDSLSVLEAFRLSNARVVEAGELNLKDRKTEEEIAQKKINLYEWMKMAPEENLIARELVDGFKISIEGAKFLLSFGNSGKAVVELYYHLLSKFPDPLVIAKMGREYAEKITEWAEKARTEEERKELDEKLLKDGANPGTIADLTASSIFLALAEGWR | soluble |
| MVEDTKTQMAAAISATLVFAARRRPLFCSLSSSSSSKPNTRKLVLYSKPGCCLCDGLKEKLHAAFTLSTGPDSLNDVTLQVRDITTNPEWERAYQYEIPVLAKENSDGKEEVLPRLSPRLSAELIQKKLLAAFS | not soluble |
| MGSDKIHHHHHHMNITPKSIIGDIKKKNGNINRVIFTGCGASMADLYPGYYFISHESKHLLSSIMQANEFNYDTPKDVNENTIVITASLGGSTPESVEATKHARELGAHVVTLSHVPNSAIINEAEYSLVHGFEEDYAHKTEKMTLALQLAIEIVNQFEGYDYYADAQKAFEGLFNLINQEANMVAPAAEEFVTKYKDENTIYVLGSGASADVAYSTASFLFMEMQWISSPTIHSGEFFHGPFELALKDTPYLLFMSDGNTRHLDARAMAFLQRFDTKLTVIDAKDHGLASIASSNVIDYFNPMLITGVMRVYAEKLAEARQHPLTQRRYMWKLENY | not soluble |
| TPHLVNLNEDPLMSECLLYYIKDGITRVGQADAERRQDIVLSGAHIKEEHCIFRSERSNSGEVIVTLEPCERSETYVNGKRVSQPVQLRSGNRIIMGKNHVFRFNHPEQARAEREKT | soluble |

Reference: the DeepSol protein solubility set
